T1: recombinant human CTLA-4 (human, UniProt P16410 36-161, limits assumed)
T1 construct: also called CTLA4 antigen
T1 sequence (looked up): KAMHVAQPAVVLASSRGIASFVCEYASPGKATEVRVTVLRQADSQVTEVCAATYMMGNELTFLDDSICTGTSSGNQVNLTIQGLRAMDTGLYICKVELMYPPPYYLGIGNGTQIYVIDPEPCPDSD


How the values were obtained:
[1] = molecular target: T1, recombinant human CTLA-4; experiment: Octet (BLI), 1:1 binding model
[2] = molecular target: T2, mouse CTLA4 (Acro Biosystem, Catlog #CT4-M52H5) (mouse, UniProt P09793 36-161); experiment: ELISA, plate coated with 1 ug/ml mouse CTLA4
T2 construct: Bought protein

| Kd [1] | koff [1] | kon [1] | binding result [2] | Binder |
| --- | --- | --- | --- | --- |
| 0.524 nM | 9.91e-05 s⁻¹ | 189000 M⁻¹ s⁻¹ | no binding | GBD008-hS005-3 (antibody, V domains shown, Humanized heavy chain-only antibody (VHH-Fc), no light chain) VH: EVQLVESGGGLVQPGGSLRLSCAASGRTASSNAMAWVRQAPGKEREFVSAISATGGLTAYADSVKGRFTISRDNSKNTLYLQMNSLRAEDTAVYYCAVGRERWYLRHTENEYDYWGQGTLVTVSS |
| 0.53 nM | 0.000114 s⁻¹ | 214000 M⁻¹ s⁻¹ | no binding | GBD008-hS005-3-2 (antibody, V domains shown, Humanized heavy chain-only antibody (VHH-Fc), no light chain) VH: EVQLVESGGGLVQPGGSLRLSCAASGRTASSNAMAWFRQAPGKEREFVSAISATGGLTAYADSVKGRFTISRDNSKNTLYLQMNSLRAEDTAVYYCAVGRERWYLRHTENEYDYWGQGTLVTVSS |
| 0.165 nM | 4.35e-05 s⁻¹ | 263000 M⁻¹ s⁻¹ | no binding | GBD008-S019 (antibody, V domains shown, Heavy chain-only antibody (VHH-Fc), no light chain; also called GBD008-5019) VH: QVQLVESGGGLVQPGGSLTLSCAASGFTFSSYTMAWYRQAPGKEREVVAGISRSGGTTNYGDSVKGRFTISRDNAKNTVYLQMNSLKPEDTAVYYCRAVSDYWGQGTQVTVSS |
| 0.236 nM | 7.13e-05 s⁻¹ | 302000 M⁻¹ s⁻¹ | no binding | GBD008-hS019-4 (antibody, V domains shown, Humanized heavy chain-only antibody (VHH-Fc), no light chain) VH: EVQLLESGGGLVQPGGSLRLSCAASGFTFSSYTMAWYRQAPGKEREVVAGISRSGGTTNYGDSVKGRFTISRDNSKNTLYLQMNSLRAEDTAVYYCRAVSDYWGQGTLVTVSS |
| 28.9 nM | 0.00501 s⁻¹ | 173000 M⁻¹ s⁻¹ | no binding | GBD008-S004 (antibody, V domains shown, Heavy chain-only antibody (VHH-Fc), no light chain) VH: EVQLVESGGGLVQAGGSLRLSCLASGRTFSSYDMGWFRQAPGKEREFVAAISWGGVNTYYADSVKGRFTISRDNAKNTVYLQMNSLKPEDTAVYYCARGSAPYSSSRSSAQETYAQWGQGTQVTVSS |
| 27.9 nM | 0.00671 s⁻¹ | 241000 M⁻¹ s⁻¹ | no binding | GBD008-hS004-5 (antibody, V domains shown, Humanized heavy chain-only antibody (VHH-Fc), no light chain) VH: EVQLVESGGGLVQPGGSLRLSCAASGRTFSSYDMGWFRQAPGKEREFVAAISWGGVNTYYADSVKGRFTISRDNAKNTLYLQMNSLRAEDTAVYYCARGSAPYSSSRSSAQETYAQWGQGTLVTVSS |
